From US20230303698A1 (HARBOUR BIOMED SHANGHAI, published 2023)

T1: human OX40 (human, UniProt P43489 29-277)
T1 construct: whole, on cells; Expressed on CHO-K1/hu OX40 cells (GenScript, #M00561); also called CD134; TNFRSF4
T1 sequence (looked up): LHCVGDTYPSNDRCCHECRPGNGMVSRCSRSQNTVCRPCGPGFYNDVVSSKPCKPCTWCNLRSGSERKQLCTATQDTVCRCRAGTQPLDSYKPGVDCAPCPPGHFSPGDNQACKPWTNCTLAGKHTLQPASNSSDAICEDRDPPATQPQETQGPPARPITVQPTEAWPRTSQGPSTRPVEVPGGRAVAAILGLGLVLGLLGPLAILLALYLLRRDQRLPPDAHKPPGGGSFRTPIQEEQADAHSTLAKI

B1: PR003789 (bispecific antibody, human IgG1, kappa, L234A L235A)
light: DIQMTQSPSTLSASVGDRVTVTCRASQSIYIWLAWYQQKPGKAPNLLIYKASSLETGVPSRFSGSGSGTEFTLTISSLQPDDFATYYCQQYYGSSRTFGQGTKVEIKRTVAAPSVFIFPPSDEQLKSGTASVVCLLNNFYPREAKVQWKVDNALQSGNSQESVTEQDSKDSTYSLSSTLTLSKADYEKHKVYACEVTHQGLSSPVTKSFNRGEC
heavy: EVQLVESGGGLVQPGGSLRLSCAASGFTFSSYWMSWVRQAPGKGLEWVANIKQEGSEKYYVDSVKGRFTISRDNAKNSLYLQMNSLRAEDTAVYYCARDRAVAGAFDIWGQGTMVTVSSASTKGPSVFPLAPSSKSTSGGTAALGCLVKDYFPEPVTVSWNSGALTSGVHTFPAVLQSSGLYSLSSVVTVPSSSLGTQTYICNVNHKPSNTKVDKKVEPKSCDKTHTCPPCPAPEAAGGPSVFLFPPKPKDTLMISRTPEVTCVVVDVSHEDPEVKFNWYVDGVEVHNAKTKPREEQYNSTYRVVSVLTVLHQDWLNGKEYKCKVSNKALGAPIEKTISKAKGQPREPQVYTLPPSREEMTKNQVSLTCLVKGFYPSDIAVEWESNGQPENNYKTTPPVLDSDGSFFLYSKLTVDKSRWQQGNVFSCSVMHEALHNHYTQKSLSLSPGAEPKSSDKTHTPPPPPEVQLLESGGGLVQPGGSLRLSCAASGFTFSSYAMSWVRQAPGKGLEWVSAISGRGGSTFYADSVRGRFTISRDNSKNTLYLQMNSLRAEDTAMYYCVDGTTGTTDVDYWGQGTLVTVSS
notes: Structure 1, IgG-VH; PD-L1 Fab from PR000265, OX40 VH from PR002067; linker H1_15; human IgG1 (AAG); also called PD-L1×OX40 bispecific antibody molecule
B2: PR004284 (bispecific antibody, human IgG1, kappa, L234A L235A)
light: DIQMTQSPSSLSASIGDRVTITCRASQSINSYLNWYQQKPGKAPKLLIYTASSLLSGVPSRFSASGSWTDFSLTISSLQPEDFATYYCQQSFSTPYTFGQGTNLEIKRTVAAPSVFIFPPSDEQLKSGTASVVCLLNNFYPREAKVQWKVDNALQSGNSQESVTEQDSKDSTYSLSSTLTLSKADYEKHKVYACEVTHQGLSSPVTKSFNRGEC
heavy: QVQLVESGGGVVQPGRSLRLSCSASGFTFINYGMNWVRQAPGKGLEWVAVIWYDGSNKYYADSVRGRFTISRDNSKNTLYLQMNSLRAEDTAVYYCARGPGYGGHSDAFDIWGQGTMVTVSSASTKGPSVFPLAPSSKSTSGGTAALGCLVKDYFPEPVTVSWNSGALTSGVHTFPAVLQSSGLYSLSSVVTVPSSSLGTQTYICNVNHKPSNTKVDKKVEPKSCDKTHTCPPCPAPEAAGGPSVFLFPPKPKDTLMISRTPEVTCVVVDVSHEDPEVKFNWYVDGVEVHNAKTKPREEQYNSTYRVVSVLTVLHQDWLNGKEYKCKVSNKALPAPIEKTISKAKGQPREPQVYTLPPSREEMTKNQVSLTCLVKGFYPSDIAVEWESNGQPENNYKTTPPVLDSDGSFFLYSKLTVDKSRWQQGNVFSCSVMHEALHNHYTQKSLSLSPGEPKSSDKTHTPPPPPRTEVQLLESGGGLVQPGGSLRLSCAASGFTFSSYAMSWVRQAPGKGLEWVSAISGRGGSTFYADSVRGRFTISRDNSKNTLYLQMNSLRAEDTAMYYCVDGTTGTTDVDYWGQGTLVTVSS
notes: Structure 1, IgG-VH; PSMA Fab from PR001331, OX40 VH from PR002067; linker H1_15-RT; human IgG1 (LALA); also called PSMA×OX40 bispecific antibody molecule
B3: PR002726, anti-CLDN18.2 monoclonal antibody 13E6F4 hIgG1 (antibody, V domains shown)
VH: EVQLLESGGGLVQPGGSLRLSCAASGFTFSSFVMSWVRQAPGKGLEWVSTISGSGRSTYYADSVKGRFTISRDNSKNTLHLQMNSLRAEDTAVYYCAKDAAAAGTKFDYWGQGTLVTVSS
VL: EIVLTQSPATLSLSPGERATLSCRASQSVSSYLAWYQQKPGQAPRLLIYDASNRATGIPARFSGSGSGTDFTLTISSLEPEDFAVYYCQQRSNWPLTFGGGTKVEIKR
notes: Parent monoclonal antibody of the CLDN18.2 end; hIgG1

How the values were obtained:
human OX40 = target: T1, human OX40; test: flow cytometry, CHO-K1/hu OX40 cells
Protocol: The antibody binding assay at the cellular level was performed using a CHO-K1 cell line CHO-K1/hu OX40 (GenScript, #M00561) highly expressing human OX40. Briefly, the CHO-K1/hu OX40 cells were digested and resuspended in an F12K complete medium, and the cell density was adjusted to 1×10⁶ cells/mL. […] The cells were incubated at 4° C. for 1 h away from light. Thereafter, the cells in each well were rinsed twice with 100 μL of pre-cooled PBS, and centrifuged at 500 g at 4° C. for 5 min, and then the supernatant was discarded. […] The plate was incubated away from light at 4° C. for 30 min. The cells in each well were rinsed twice with 100 L of pre-cooled PBS, and centrifuged at 500 g at 4° C. for 5 min, and then the supernatant was discarded. Finally, a pre-cooled PBS was added at 200 μL/well to resuspend the cells. Fluorescence signal values were read using a BD FACS CANTOII flow cytometer or an ACEA NovoCyte flow cytometer, and the data were processed and analyzed using FlowJo v10 (FlowJo, LLC) software.

human PD-L1 = target: T2, human PD-L1 (human, UniProt Q9NZQ7 19-290); test: flow cytometry, CHO-K1/hPD-L1 cells
T2 construct: whole, on cells; Expressed on CHO-K1/hPD-L1 cells (GenScript, M00543); also called CD274; B7-H1
T2 sequence (Q9NZQ7 19-290): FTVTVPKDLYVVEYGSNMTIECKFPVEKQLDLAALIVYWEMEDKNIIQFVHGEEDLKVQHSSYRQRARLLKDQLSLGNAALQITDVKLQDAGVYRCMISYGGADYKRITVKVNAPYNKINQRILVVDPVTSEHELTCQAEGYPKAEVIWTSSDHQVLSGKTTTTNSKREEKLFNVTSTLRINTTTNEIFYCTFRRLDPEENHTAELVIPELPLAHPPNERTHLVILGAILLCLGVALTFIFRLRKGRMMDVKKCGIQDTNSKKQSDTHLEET

human PSMA = target: T3, human PSMA (human, UniProt Q04609 1-750); test: flow cytometry, LNCaP cells highly expressing human PSMA
T3 construct: whole, on cells; On LNCaP cells highly expressing human PSMA (Nanjing Cobioer, CBP60364); also called FOLH1; glutamate carboxypeptidase 2
T3 sequence (Q04609 whole entry): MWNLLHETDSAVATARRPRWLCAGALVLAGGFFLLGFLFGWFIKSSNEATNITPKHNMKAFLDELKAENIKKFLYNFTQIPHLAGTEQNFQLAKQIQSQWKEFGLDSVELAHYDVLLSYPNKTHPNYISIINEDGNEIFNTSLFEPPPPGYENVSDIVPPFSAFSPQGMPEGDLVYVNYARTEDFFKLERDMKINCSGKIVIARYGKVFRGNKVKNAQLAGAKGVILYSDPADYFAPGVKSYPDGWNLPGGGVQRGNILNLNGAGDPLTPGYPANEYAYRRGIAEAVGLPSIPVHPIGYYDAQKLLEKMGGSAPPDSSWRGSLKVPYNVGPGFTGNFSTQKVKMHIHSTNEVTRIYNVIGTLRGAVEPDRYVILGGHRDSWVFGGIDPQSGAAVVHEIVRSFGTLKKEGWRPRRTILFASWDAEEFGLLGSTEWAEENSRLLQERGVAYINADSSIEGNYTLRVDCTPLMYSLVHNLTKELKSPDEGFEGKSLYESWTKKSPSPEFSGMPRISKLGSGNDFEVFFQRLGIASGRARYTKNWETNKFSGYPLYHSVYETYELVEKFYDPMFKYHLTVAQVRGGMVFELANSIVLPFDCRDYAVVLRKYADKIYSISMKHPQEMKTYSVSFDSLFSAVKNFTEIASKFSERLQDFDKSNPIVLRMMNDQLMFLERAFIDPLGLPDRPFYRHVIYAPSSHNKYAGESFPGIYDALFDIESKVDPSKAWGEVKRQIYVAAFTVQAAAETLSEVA

human CLDN18.2 = target: T4, human CLDN18.2 (human); test: flow cytometry, NUGC-4 cells highly expressing human CLDN18.2
T4 construct: On NUGC-4 cells highly expressing human CLDN18.2 (JCRB, JCRB0834); also called Claudin 18.2; NUGC-4 cells
Protocol: In this example, the binding ability of the binding proteins to cells highly expressing specific tumor antigens was determined by flow cytometry FACS. Briefly, a cell suspension was collected, and the cell density was adjusted to 2×10⁶ cells/mL. […] Then, binding proteins diluted in a 3-fold gradient at a total of 8 concentrations that were 2 times the final concentrations were added at 50 μL/well, and the mixture was mixed well. hIgG1 iso (CrownBio, #C0001) was used as an isotype control. The cells were incubated at 4° C. for 2 h away from light. Then, the cells in each well were then rinsed twice with 100 μL of pre-cooled PBS buffer and centrifuged at 500 g at 4° C. for 5 min, and then the supernatant was discarded. […] Then, the cells in each well were then rinsed twice with 100 μL of pre-cooled PBS buffer and centrifuged at 500 g at 4° C. for 5 min, and then the supernatant was discarded. Finally, a pre-cooled FACS buffer (PBS buffer containing 0.5% BSA) was added at 200 μL/well to resuspend the cells. Fluorescence signal values were read using an ACEA NovoCyte flow cytometer or a BD FACS CANTOII flow cytometer, and the data were processed and analyzed using FlowJo v10 (FlowJo, LLC) software.
In this example, the binding ability of the antibodies targeting CLDN18.2 to NUGC-4 cells highly expressing human CLDN18.2 (JCRB, JCRB0834) was determined.

Row | Binder | binding result (human OX40) | binding result (human PD-L1) | binding result (human PSMA) | binding result (human CLDN18.2)
1 | B1 | binds | binds |  | 
2 | B2 | binds |  | binds | 
3 | B3 |  |  |  | binds
